Bounds are passed on as bounds.

Here are results for one molecule from US20100095387A1, “METHODS AND REAGENTS FOR SCREENING NEW DRUGS AND FOR TREATING ION PUMP ASSOCIATED DISORDERS AND DISEASES” (priority 2005, published 2010).

For one experiment, the target named is α3Na+/K+-ATPase (Mus musculus, UniProt Q6PIC6). Kind of experiment: Whole cell current clamp of cultured cortical neurons, channel blockers present. It counts as cell-based.
Experiment [1] relates to layer V neurons in acute cortical slices. The experiment in a line: Whole cell current clamp of layer V neurons in acute cortical slices. The experiment is classed as cell-based, mouse.
The next experiment relates to cortical neurons. Kind of experiment: c-fos induction, Fos in situ enzyme-linked immunoassay in cortical cultures. It counts as cell-based, mouse. The note with it: C-AgΔ20 at 50 pM or 5 nM; C-Ag15 up to fivefold above saturation for C-Ag20z0/8. As for the experimental part:
Mouse cortical cultures were prepared from newborn or 1-d-old ICR strain mice (Harlan) as described previously (Hilgenberg et al., 1999). For the first 24 h after plating, cells were maintained in neural basal medium (NBM) plus B27 supplements (Invitrogen), and in nonneuronal cell-conditioned NBM (cNBM) plus B27 thereafter, at 37° C. in humidified 5% CO2 atmosphere. To further reduce proliferation of nonneuronal cells, cultures on glass coverslips used for histology were treated with 5 μM 5-fluoro-2-deoxyuridine (Sigma-Aldrich) 3-4 d after plating. Hippocampal and cerebellar cultures were prepared in a similar manner. Experiments were performed on 10-14-d-old cultures. Agrin-deficient neuron cultures were prepared from cortices of embryonic d 18-19 fetuses resulting from matings between mice heterozygous for a mutation in the agrin gene (Gautam et al., 1996). Cultures were prepared and genotyped as described previously (Li et al., 1999), and were maintained as above.
Fos expression in cortical cultures was measured by in situ enzyme-linked immunoassay (Hilgenberg et al., 1999). In brief, 11-14-d-old neuronal cultures were treated for 10 min with agrin or other agent diluted in NBM or PBS, then washed in cNBM and returned to the incubator for 2 h. […] The level of Fos expression was determined by monitoring conversion of p-nitrophenyl phosphate to a soluble yellow reaction product at 405 nm.

The test system of another experiment is cardiac myocytes. The experiment in a line: Spontaneous contraction frequency of cultured cardiac myocytes. It counts as cell-based, mouse. The protocol:
FIG. 17. Cardiac myocyte contraction is agrin dependent. Cardiac myocytes were prepared from hearts of individual embryos produced by heterozygous pairings. The genotype of cultures was determined by PCR analysis of tissue samples from each embryo. Myocytes were maintained in 199 medium containing 10% FCS as described (Mitcheson et al., 1998). At 5 days in culture, the frequency of spontaneous contractions was determined by counting contractions in myocytes from 5 random fields at 300× magnification for 30 seconds. Contraction frequency is dependent on Agrn gene dosage such that Agrn−/−>Agrn+/−>Agrn+/+. Addition of C-Ag208 to the growth medium rescues the Agrn mutant phenotype whereas C-Ag15 increased the contraction frequency of wild type myocytes to a level similar to Agrn−/− cells. Bars show mean±SEM for a minimum of 2 independent platings from 3 embryos, except for Agrn+/−treated with C-Ag208, which was a single plating of 2 embryos. All data were collected blind with respect to genotype and agrin treatment. *** p≦0.001. ANOVA with Bonferroni post-hoc pair-wise comparison.
Quantitative studies confirmed and extended these observations by showing that the frequency of myocyte contraction is dependent on agrin gene dose: Agrn−/− myocyte contraction frequency is about 2-fold higher and Agrn+/− 1.5-fold higher than Agrn+/+ myocytes (FIG. 17). To learn whether the effect of the Agrn mutation on myocyte contraction is a direct result of the loss of agrin expression the effects of growing the cells in media supplemented with C-Ag208, an active agrin fragment, or C-Ag15, the agrin antagonist was next examined.

The test system of another experiment is agrin-deficient neurons. The experiment in a line: Rescue of glutamate-induced Fos expression in agrin-deficient neuron cultures. It counts as cell-based, mouse. The protocol: FIG. 6 is a graph showing that the 20-kD COOH-terminal region of agrin is the minimal fragment sufficient to rescue an agrin-deficient phenotype. (A) 10-d-old wild-type (filled bars) or agrin-deficient (open bars) cultures were grown for 2 d in media supplemented to 5 nM with the indicated agrin fragment. Cultures were challenged for 5 min with 100 μM glutamate as described previously (Hilgenberg et al., 2002), and the levels of Fos expression were determined. Data were normalized to levels of glutamate-induced Fos expression in mocktreated wild-type cultures. Compared with mock, glutamate responses of homozygous agrin-deficient neurons were rescued to near wildtype levels by either the long C-Ag95z8/0 or short C-Ag20z8/0 fragments (***, P≦0.0005; **, P≦0.002; *, P≦0.02; paired t test). (B) To test the ability of C-Ag15 to antagonize agrin action, 10-d-old agrin-deficient neurons were maintained for 2 d in the presence of 5 nM C-Ag95z0 alone or in combination with 10 nM C-Ag15, and neuronal responses to glutamate were determined as above. […]
Fos expression in cortical cultures was measured by in situ enzyme-linked immunoassay (Hilgenberg et al., 1999). […] The level of Fos expression was determined by monitoring conversion of p-nitrophenyl phosphate to a soluble yellow reaction product at 405 nm.

For experiment [2], the system named is cultured cortical neurons. Kind of experiment: Firing properties of cultured cortical neurons in normal external solution. The experiment is classed as cell-based, mouse. The note with it: co-incubation with C-Ag15.

B1: C-Ag15: 15-kD COOH-terminal fragment of agrin created by deleting 37 amino acids from the NH2 terminus of C-Ag20, SEQ. ID NO. 3 (protein)
chain: MDPWIGKAAERADYMALAIVDGHLQLSYDLASQPVVLRSTVKVNTNRWLRVRAHREHREGSLQVGNEAPVTSSSPLGATQLDTDGALWLGGLQKLPVGQPLPKAYGTGFVGCLRNVVGHRQLHLLEDAVTKPELRPCPTLNSKLGPEQKLISEEDLNSAVDHHHHHH
modifications: Synthetically produced sequence
As for B1, in the experiment with α3Na+/K+-ATPase, the “change in membrane potential” value is listed as −1.0±0.4 mV, the “effect on depolarization induced by active agrin fragments” value is “effective in blocking depolarization” and the “effect on ouabain induced membrane depolarization” value was “blocked”. Besides, in experiment [1] (in kainic acid), the “time to repolarization after addition” value was ≤ 10 min. The membrane potential in experiment [1] (kainic acid 0.5 μM + C-Ag15) is listed as −66.3±1.8 mV. Further, the action potential frequency in experiment [1] (kainic acid plus C-Ag15) is listed as 0.01±0.005 Hz. Moreover, the “effect on response to C-Ag200” value in experiment [1] (slices) was “blocked”. The spontaneous action potentials result in experiment [1] (two spontaneously active neurons) is listed as “reversibly inhibited”. Besides, the “effect of fragment alone on Fos expression” value in the experiment with cortical neurons is given as “no effect”. In addition, in the experiment on cardiac myocytes (Agrn+/+ and Agrn+/− myocytes grown in fragment), the contraction frequency result is “significantly increased”. Moreover, in the experiment on cardiac myocytes (Agrn−/− cells grown in fragment), the contraction frequency entry is reported as “no effect”. For the same molecule, the “rescue by C-Ag95z0 blocked” value in the experiment on agrin-deficient neurons (10 nM C-Ag15 with 5 nM C-Ag95z0 in growth medium) stood at 54%. For the same molecule, the “effect on glutamate-induced expression of c-fos” value in the experiment on agrin-deficient neurons (up to 10 nM, wild-type or heterozygous agrin-deficient neurons) is on record as “no effect”. In addition, in experiment [2], the “effect on depolarization and action potential increase induced by C-Ag20 isoforms” value is “blocked”.
